{
  "source": "paper PMC4928148",
  "about": "(Biochemistry, 2016)",
  "proteins": {"B1": {"name": "secreted (extracellular) catalase-peroxidase from Magnaporthe grisea, wild type (enzyme)", "chain": "QGCPFAKRDGTVDSSLPQKRADAPETTTFGRCAVKSNQAGGGTRSHDWWPCQLRLDVLRQFQPSQNPLGGDFDYAEAFQSLDYEAVKKDIAALMTESQDWWPADFGNYGGLFVRMAWHSAGTYRAMDGRGGGGMGQQRFAPLNSWPDNQNLDKARRLIWPIKQKYGNKISWADLMLLTGNVALENMGFKTLGFGGGRADTWQSDEAVYWGAETTFVPQGNDVRYNNSVDINARADKLEKPLAATHMGLIYVNPEGPNGTPDPAASAKDIREAFGRMGMNDTETVALIAGGHAFGKTHGAVKGSNIGPAPEAADLGMQGLGWHNSVGDGNGPNQMTSGLEVIWTKTPTKWSNGYLESLINNNWTLVESPAGAHQWEAVNGTVDYPDPFDKTKFRKATMLTSDLALINDPEYLKISQRWLEHPEELADAFAKAWFKLLHRDLGPTTRYLGPEVPKESFIWQDPLPAREGDLIDDADVDKLKAAILSTDGLDVSKLASTAMACATTYRNSDKRGGCNGARIALEPQRNWVSNNPTQLSAVLDALKKVQSDFNGSNGNKKVSLADLIVLGGTAAVEKAAKDAGVDIKVPFSAGRVDATQEQTDVTQFSYLEPQADGFRNYGRGTARARTEEIMVDKASQLTLTPPELTVLVGGMRALGANYDGSDVGVFTANKGKLTPDFFVNLVDMNIAWTASGADGESWVGTDRKSRSEKYKGSRADLVFGSHAELRAIAEVYAENGNQEKFVKDFVAAWTKVMNLDRFDLKVKK"}},
  "target": "the molecule itself",
  "test": "crystal structure",
  "data": [
    {"protein": "B1", "values": [
      {"measurement": "stoichiometry N", "result": 2}
    ]}
  ]
}
